Reference: the supplement of paper PMC10567573

B1: PBXIP1 (parent)
chain: LPVETLGPASRMDPESERALQAPH

Variants of: B1
Experiment: protein stability index of a GFP-peptide fusion (GPS, HEK-293T) (PSI 1-6); higher = more stable
Settings: c terminus: a fixed tail appended
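Also: lentivirally expressed fusions sorted by FACS into six bins by GFP to DsRed ratio, PSI derived from sequencing read proportions per bin multiplied by bin number.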

| Variant | protein stability index |
| --- | --- |
| LPVEELGPASRMDPESERALQAPH | 5.77 |
| LPVEVLGPASRMDPESERALQAPH | 4.6 |
| LPVEFLGPASRMDPESERALQAPH | 4.89 |
| LPVETLGPACRMDPESERALQAPH | 4.24 |
| LPVETLGPAGRMDPESERALQAPH | 4.47 |
| LPVETLGPARRMDPESERALQAPH | 4.99 |
| LPVETLGPAKRMDPESERALQAPH | 5.32 |
| LPVETLGPAHRMDPESERALQAPH | 4.2 |
| LPVETLGPALRMDPESERALQAPH | 3.53 |
| LPVETLGPAQRMDPESERALQAPH | 4.88 |
| LPVETLGPADRMDPESERALQAPH | 4.92 |
| LPVETLGPAWRMDPESERALQAPH | 4.4 |
| LPVETLGPAFRMDPESERALQAPH | 3.75 |
| LPVETLGPAMRMDPESERALQAPH | 4.3 |
| LPVETLGPAERMDPESERALQAPH | 5.28 |
| LPVETLGPAIRMDPESERALQAPH | 3.95 |
| LPVETLGPAYRMDPESERALQAPH | 3.85 |
| LPVETLGPAVRMDPESERALQAPH | 4.44 |
| LPVETLGPAARMDPESERALQAPH | 5.14 |
| LPVETLGPATRMDPESERALQAPH | 4.78 |
| LPVETLGPANRMDPESERALQAPH | 5.01 |
| LPVETLGPMSRMDPESERALQAPH | 4.12 |
| LPVETLGPNSRMDPESERALQAPH | 4.63 |
| LPVETLGPISRMDPESERALQAPH | 4.04 |

| Variant | protein stability index |
| --- | --- |
| LPVETLGPPSRMDPESERALQAPH | 4.92 |
| LPVETLGPWSRMDPESERALQAPH | 4.42 |
| LPVETLGPTSRMDPESERALQAPH | 4.51 |
| LPVETLGPQSRMDPESERALQAPH | 4.59 |
| LPVETLGPCSRMDPESERALQAPH | 3.68 |
| LPVETLGPFSRMDPESERALQAPH | 3.83 |
| LPVETLGPDSRMDPESERALQAPH | 4.54 |
| LPVETLGPHSRMDPESERALQAPH | 4.91 |
| LPVETLGPYSRMDPESERALQAPH | 4.26 |
| LPVETLGPESRMDPESERALQAPH | 4.56 |
| LPVETLGPLSRMDPESERALQAPH | 3.18 |
| LPVETLGPKSRMDPESERALQAPH | 4.77 |
| LPVETLGPRSRMDPESERALQAPH | 4.81 |
| LPVETLGPVSRMDPESERALQAPH | 2.51 |
| LPVETLGPGSRMDPESERALQAPH | 4.33 |
| LPVETLGRASRMDPESERALQAPH | 4.73 |
| LPVETLGHASRMDPESERALQAPH | 4.51 |
| LPVETLGGASRMDPESERALQAPH | 5.57 |
| LPVETLGCASRMDPESERALQAPH | 5.37 |
| LPVETLGFASRMDPESERALQAPH | 4.19 |
| LPVETLGLASRMDPESERALQAPH | 4.99 |
| LPVETLGIASRMDPESERALQAPH | 4.89 |
| LPVETLGYASRMDPESERALQAPH | 4.67 |
| LPVETLGMASRMDPESERALQAPH | 4.16 |

| Variant | protein stability index |
| --- | --- |
| LPVETLGTASRMDPESERALQAPH | 5.31 |
| LPVETLGEASRMDPESERALQAPH | 5.52 |
| LPVETLGWASRMDPESERALQAPH | 4.01 |
| LPVETLGVASRMDPESERALQAPH | 4.83 |
| LPVETLGNASRMDPESERALQAPH | 5.28 |
| LPVETLGQASRMDPESERALQAPH | 5.1 |
| LPVETLGAASRMDPESERALQAPH | 5.03 |
| LPVETLGSASRMDPESERALQAPH | 4.64 |
| LPVETLGKASRMDPESERALQAPH | 4.39 |
| LPVETLGDASRMDPESERALQAPH | 5.46 |
| LPVETMGPASRMDPESERALQAPH | 5.3 |
| LPVETFGPASRMDPESERALQAPH | 4.81 |
| LPVETYGPASRMDPESERALQAPH | 5.53 |
| LPVETVGPASRMDPESERALQAPH | 4.45 |
| LPVETSGPASRMDPESERALQAPH | 5.44 |
| LPVETQGPASRMDPESERALQAPH | 5.78 |
| LPVETRGPASRMDPESERALQAPH | 5.28 |
| LPVETGGPASRMDPESERALQAPH | 4.71 |
| LPVETKGPASRMDPESERALQAPH | 5.03 |
| LPVETAGPASRMDPESERALQAPH | 5.19 |
| LPVETTGPASRMDPESERALQAPH | 5.37 |
| LPVETDGPASRMDPESERALQAPH | 5.48 |
| LPVETPGPASRMDPESERALQAPH | 5.41 |
| LPVETCGPASRMDPESERALQAPH | 4.55 |

| Variant | protein stability index |
| --- | --- |
| LPVETWGPASRMDPESERALQAPH | 4.72 |
| LPVETIGPASRMDPESERALQAPH | 3.73 |
| LPVETNGPASRMDPESERALQAPH | 5.42 |
| LPVETEGPASRMDPESERALQAPH | 5.21 |
| LPVETHGPASRMDPESERALQAPH | 5.09 |
| LPVGTLGPASRMDPESERALQAPH | 5.03 |
| LPVRTLGPASRMDPESERALQAPH | 5.09 |
| LPVTTLGPASRMDPESERALQAPH | 5.18 |
| LPVMTLGPASRMDPESERALQAPH | 4.74 |
| LPVFTLGPASRMDPESERALQAPH | 3.94 |
| LPVLTLGPASRMDPESERALQAPH | 3.49 |
| LPVQTLGPASRMDPESERALQAPH | 4.46 |
| LPVHTLGPASRMDPESERALQAPH | 4.79 |
| LPVYTLGPASRMDPESERALQAPH | 4.22 |
| LPVPTLGPASRMDPESERALQAPH | 5.25 |
| LPVKTLGPASRMDPESERALQAPH | 4.99 |
| LPVITLGPASRMDPESERALQAPH | 4.98 |
| LPVWTLGPASRMDPESERALQAPH | 3.71 |
| LPVVTLGPASRMDPESERALQAPH | 4.62 |
| LPVDTLGPASRMDPESERALQAPH | 5.71 |
| LPVNTLGPASRMDPESERALQAPH | 4.53 |
| LPVSTLGPASRMDPESERALQAPH | 4.94 |
